Measurements published in patent publication US20190338002A1 (Pieris, published 2019).
Positions count from the first letter of the chain named.

T1: rat alpha CGRP (SEQ ID NO: 82) (rat)
T1 construct: also called rat αCGRP; rat α-CGRP
T1 peptide: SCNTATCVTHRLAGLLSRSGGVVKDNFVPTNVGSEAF

T2: rat beta CGRP (SEQ ID NO: 83) (rat, not fully specified)
T2 construct: also called rat βCGRP; rat β-CGRP
T2 peptide: T1 peptide with E35K

T3: human beta CGRP (SEQ ID NO: 81) (human, not fully specified)
T3 construct: also called human βCGRP; hβCGRP
T3 peptide: T1 peptide with S1A, V22M, D25S, E35K

T4: human alpha CGRP (SEQ ID NO: 80) (human, not fully specified)
T4 construct: also called human αCGRP; hαCGRP
T4 peptide: T1 peptide with S1A, N3D, D25N, E35K

B1: lipocalin mutein SEQ ID NO: 25 (designed binder)
chain: QDSTSDLIPAPPLSKVPLQQNFQDNQFHGKWYVVGWAGNTLLREDKDPIKMQAKIYELKEDRSYNVTWVYFADKKCNYHIETFVPGSQPGEFTLGTIKSYPGETPILVRVVSTNYNQHAMVFFKGVNQNREIFEIILYGRTKELTNELKENFIRFSKSLGLPENHIVFPVPIDQCIDGSAWSHPQFEK
notes: biotinylated by NHS chemistry for capture in SPR
B2: lipocalin mutein SEQ ID NO: 27 (designed binder)
chain: B1 chain with K54M, R62K, I136V
notes: as for B1
B3: lipocalin mutein SEQ ID NO: 23 (designed binder)
chain: B1 chain with T96L
notes: as for B1
B4: lipocalin mutein SEQ ID NO: 24 (designed binder)
chain: B1 chain with D73E
notes: as for B1
B5: lipocalin mutein SEQ ID NO: 26 (designed binder)
chain: B1 chain with N77R, Y100H
notes: as for B1
B6: lipocalin mutein SEQ ID NO: 17 (designed binder)
chain: QDSTSDLIPAPPLSKVPLQQNFQDNQFHGKWYVVGRAGNDVLREDKDPEKMEATIYELKEDKSYNVTDVGFVQKRCMYVTHTFVPGSQPGEFTLGNIESYPGVTSALVRVVSTDYNQHAMVFVKLVKQNRELFEITLYGRTKELTSELKENFIRFSKSLGLPENHIVFPVPIDQCIDGSAWSHPQFEK
notes: as for B1
B7: lipocalin mutein SEQ ID NO: 19 (designed binder)
chain: B6 chain with V41T, F71L, R75K, T80I, E98K, D114N, N129S
notes: as for B1
B8: lipocalin mutein SEQ ID NO: 20 (designed binder)
chain: B6 chain with V41T, E44K, R75K, T80I, E98K, D114N
notes: as for B1
B9: lipocalin mutein SEQ ID NO: 18 (designed binder)
chain: B6 chain with G38A, E44D, K46N, R75K, T80V, E98K, D114N, V123F, I135V
B10: cysteine-free lipocalin mutein SEQ ID NO: 29 (designed binder)
chain: QDSTSDLIPAPPLSKVPLQQNFQDNQFQGKWYVVGRAGNDVLREDKDPEKMEATIYELKEDKSYNVTDVGFVQKRLMYVTHTFVPGSQPGEFTLGNIESYPGVTSALVRVVSTDYNQHAMVFVKLVKQNRELFEITLYGRTKELTSELKENFIRFSKSLGLPENHIVFPVPIDQIDGSAWSHPQFEK
notes: as for B1
B11: cysteine-free lipocalin mutein SEQ ID NO: 30 (designed binder)
chain: B10 chain with L76Y
notes: as for B1

Columns and labels:
[1] = target: T1, rat alpha CGRP (SEQ ID NO: 82); test: SPR, 37 C, mutein captured, CGRP analyte
Protocol: (§1) The Biotin CAPture Kit (GE Healthcare) was used to immobilize biotinylated lipocalin muteins to a chip surface. Muteins were biotinylated using standard NHS chemistry. Undiluted Biotin CAPture Reagent (streptavidin conjugated with ss-DNA oligo) was captured on a Sensor Chip CAP with the pre-immobilized complementary ss-DNA oligo. Thereafter, biotinylated muteins at 1 μg/mL were applied for 300 s at a flow rate of 5 μL/min.
(§2) CGRP species were applied in three concentrations of 30 nM, 3 nM and 0.3 nM at a flow rate of 30 μL/min or in a single concentration of 25 nM per cycle as shown in FIG. 2. The dilutions were injected with association times of 180 s and dissociation times of 5400 sec to obtain ka and kd information. Regeneration of the chip surface was achieved by injecting 6 M Guanidinium-HCl+0.25 M NaOH (120 s) with a flow rate of 10 μL/min. Injection of regeneration solutions was followed by an extra wash step with HBS-EP+(1×; BR-1006-69; GE Healthcare) running buffer and a stabilization period of 120 s.
(§3) The data were double-referenced by subtraction of the corresponding signals measured for the control channel (loaded with Biotin CAPture reagent only) and by subtraction of buffer injections from the binding responses. Association rate constant ka and dissociation rate constant kd for the binding reaction were determined using Biacore T200 Evaluation Software V2.0 for data processing and kinetic fitting. The data were globally fit with 1:1 binding model.

[2] = target: T2, rat beta CGRP (SEQ ID NO: 83); test: SPR, 37 C, mutein captured, CGRP analyte
Protocol: as §1, §2, §3

[3] = target: T3, human beta CGRP (SEQ ID NO: 81); test: SPR, 37 C, mutein captured, CGRP analyte
Protocol: as §1, §2, §3

[4] = target: T4, human alpha CGRP (SEQ ID NO: 80); test: SPR, 37 C, mutein captured, CGRP analyte
Protocol: as §1, §2, §3

[5] = target: T1, rat alpha CGRP (SEQ ID NO: 82); test: cell-based or functional assay
[6] = target: T2, rat beta CGRP (SEQ ID NO: 83); test: cell-based or functional assay
[7] = target: T3, human beta CGRP (SEQ ID NO: 81); test: cell-based or functional assay
[8] = target: T4, human alpha CGRP (SEQ ID NO: 80); test: cell-based or functional assay
[9] = target: T3, human beta CGRP (SEQ ID NO: 81); test: SPR as in Example 5
Protocol: as §1, §2

[10] = target: T4, human alpha CGRP (SEQ ID NO: 80); test: SPR as in Example 5
Protocol: as §1, §2

[11] = target: T3, human beta CGRP (SEQ ID NO: 81); test: cell-based or functional assay
[12] = target: T4, human alpha CGRP (SEQ ID NO: 80); test: cell-based or functional assay

Binder | Kd [1] [nM] | koff [1] [s⁻¹] | kon [1] [M⁻¹ s⁻¹] | Kd [2] [nM] | koff [2] [s⁻¹] | kon [2] [M⁻¹ s⁻¹] | Kd [3] [nM] | koff [3] [s⁻¹] | kon [3] [M⁻¹ s⁻¹] | Kd [4] [nM] | koff [4] [s⁻¹] | kon [4] [M⁻¹ s⁻¹] | IC50, CGRP-induced cAMP production, L6 cells [5] [nM] | IC50, CGRP-induced cAMP production, L6 cells [6] [nM] | IC50, CGRP-induced cAMP production, SK-N-MC cells [7] [nM] | IC50, CGRP-induced cAMP production, SK-N-MC cells [8] [nM] | Kd [9] [nM] | Kd [10] [nM] | cAMP assay IC50, SK-N-MC cells [11] [nM] | cAMP assay IC50, SK-N-MC cells [12] [nM]
B1 | 0.016 | 2.12e-05 | 1.3e+06 | 0.008 | 1.33e-05 | 1.64e+06 | 0.005 | 1.01e-05 | 2.02e+06 | 0.006 | 1.65e-05 | 2.68e+06 | 0.06 | 0.16 | 0.19 | 0.15 | – | – | – | –
B2 | 0.038 | 3.1e-05 | 807000 | 0.018 | 2.64e-05 | 1.5e+06 | 0.011 | 2.26e-05 | 2.04e+06 | 0.018 | 2.59e-05 | 1.43e+06 | – | – | 0.12 | 0.1 | 0.007 | 0.038 | 0.12 | 0.1
B3 | 0.009 | 1.3e-05 | 1.39e+06 | 0.008 | 1.34e-05 | 1.74e+06 | 0.001 | 4.11e-06 | 2.84e+06 | 0.011 | 1.84e-05 | 1.64e+06 | 0.07 | 0.17 | 0.2 | 0.18 | – | – | – | –
B4 | 0.015 | 2.08e-05 | 1.43e+06 | 0.007 | 1.22e-05 | 1.69e+06 | 0.004 | 9.01e-06 | 2.52e+06 | 0.009 | 1.4e-05 | 1.6e+06 | 0.07 | 0.16 | 0.19 | 0.12 | – | – | – | –
B5 | 0.015 | 2.01e-05 | 1.31e+06 | 0.006 | 9.98e-06 | 1.56e+06 | 0.003 | 7.6e-06 | 2.44e+06 | 0.013 | 1.99e-05 | 1.5e+06 | 0.05 | 0.16 | 0.26 | 0.16 | – | – | – | –
B6 | 0.031 | 8.44e-05 | 2.75e+06 | 0.012 | 5.99e-05 | 5.18e+06 | 0.001 | 1.44e-05 | 1.36e+07 | 0.011 | 3.66e-05 | 3.34e+06 | 0.06 | 0.11 | 0.23 | 0.11 | 0.003 | 0.02 | 0.13 | 0.09
B7 | 0.024 | 3.02e-05 | 1.25e+06 | 0.006 | 1.21e-05 | 2.01e+06 | 0.001 | 6.67e-06 | 4.56e+06 | 0.005 | 1.07e-05 | 2.26e+06 | 0.07 | 0.17 | 0.21 | 0.14 | – | – | – | –
B8 | 0.028 | 2.41e-05 | 867000 | 0.013 | 1.84e-05 | 1.38e+06 | 0.004 | 7.89e-06 | 2.18e+06 | 0.012 | 1.75e-05 | 1.45e+06 | 0.08 | 0.11 | 0.17 | 0.14 | – | – | – | –
B9 | – | – | – | – | – | – | – | – | – | – | – | – | 0.06 | 0.14 | 0.29 | 0.19 | – | – | – | –
B10 | – | – | – | – | – | – | – | – | – | – | – | – | – | – | – | – | 0.05 | 0.065 | 0.91 | 0.14
B11 | – | – | – | – | – | – | – | – | – | – | – | – | – | – | – | – | 0.075 | 0.109 | 1.32 | 0.22
